Test results as given in PMC8189435, “Timer-based proteomic profiling of the ubiquitin-proteasome system reveals a substrate receptor of the GID ubiquitin ligase” (Molecular Cell, 2021).

Biological target: T1, Gid1-tFT (chromosomally tagged Gid1-mCherry-sfGFP) (S. cerevisiae, UniProt P53076 1-958)
T1 construct: Gid1, subunit of the GID ubiquitin ligase complex, S. cerevisiae; endogenous locus tagged with mCherry-sfGFP; It was precipitated with anti-GFP antibodies from lysate, so other GID subunits are likely present with it; source: S. cerevisiae, chromosomally tagged (strain YMaM1083; YLZY0091 for gid5Δ), in lysate; not shown: mCherry-sfGFP timer (tFT), C-terminal, kept
T1 sequence (looked up): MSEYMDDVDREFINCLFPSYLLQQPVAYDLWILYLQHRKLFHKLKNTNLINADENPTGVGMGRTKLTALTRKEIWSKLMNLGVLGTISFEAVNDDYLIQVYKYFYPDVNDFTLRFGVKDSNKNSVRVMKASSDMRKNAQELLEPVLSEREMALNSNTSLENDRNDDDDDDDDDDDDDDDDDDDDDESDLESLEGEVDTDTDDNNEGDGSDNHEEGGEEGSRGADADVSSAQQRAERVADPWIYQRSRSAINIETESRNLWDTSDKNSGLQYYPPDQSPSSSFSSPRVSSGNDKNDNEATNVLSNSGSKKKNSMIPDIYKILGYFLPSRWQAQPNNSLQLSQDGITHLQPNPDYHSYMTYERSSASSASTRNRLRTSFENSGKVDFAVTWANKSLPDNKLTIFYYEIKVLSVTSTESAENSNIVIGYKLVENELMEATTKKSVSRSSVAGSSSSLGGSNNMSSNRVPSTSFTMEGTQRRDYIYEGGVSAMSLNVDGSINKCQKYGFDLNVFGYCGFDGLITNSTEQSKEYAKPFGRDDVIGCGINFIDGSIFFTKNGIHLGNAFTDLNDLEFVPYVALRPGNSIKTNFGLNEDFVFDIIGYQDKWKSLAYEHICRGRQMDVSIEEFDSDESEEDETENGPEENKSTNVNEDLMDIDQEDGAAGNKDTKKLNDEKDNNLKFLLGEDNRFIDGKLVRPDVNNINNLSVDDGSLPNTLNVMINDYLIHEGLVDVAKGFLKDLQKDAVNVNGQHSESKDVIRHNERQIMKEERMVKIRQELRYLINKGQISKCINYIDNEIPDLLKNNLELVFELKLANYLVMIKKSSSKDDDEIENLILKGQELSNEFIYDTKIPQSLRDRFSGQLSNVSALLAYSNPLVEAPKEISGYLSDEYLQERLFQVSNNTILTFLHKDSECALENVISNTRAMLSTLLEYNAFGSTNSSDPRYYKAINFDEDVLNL
Experiment: co-IP; tFT-tagged bait precipitated with rabbit anti-GFP on Dynabeads from yeast lysates (log phase, SC medium lacking histidine, 2% glucose); IP buffer 50 mM Tris-HCl pH 7.5, 100 mM NaCl, 1% Triton X-100, 2 mM EDTA; 2 h at 4°C; HA-tagged prey detected by anti-HA blot; WT or gid5Δ cells
Conditions: partners not purified

relative amount of co-immunoprecipitated HA-Gid11, normalized to precipitated Gid1-tFT, in gid5Δ cells compared with the WT: 0.43 relative to WT
B1: HA-Gid11 (Ylr149c/Gid11) (natural protein, S. cerevisiae, UniProt Q99296 1-730, looked up)
chain: MTIDGTGQSKEALQDERLNTGSDKVYQNYMMPALELYDAKVSINHWQLRDCIKPGSMNQSKLYYIYDHSIRVLDTDSSVLRSPVRRHNSIQPSNSGKNSTEKTSTKGSRTTGSYISKNLHVPSEKLVEFNFKPRCFTELNGLTVCGGLIGSDDKGFPSNWNRLAQDANISLPPPSQPINISKNISFPINSHYSNPNIWKGIVEFYNQETDTMMTFTLGQFINNCVTLYDRASMQFDLFACNNDGHLYQCDVSNRDVTLVKRYADLKFPLNNASLSHDGQTMVVSGDSNKFAVYNQNELTNQFSLHYDNHPSWGSSVNRVRRIPRFALPDESEYIENIYEAPNSDHGFYNSFSENDLQFATVFQNGTCAIYDIRNMATPMAEISSTRPHSHNGAFRVCRFSYGLDDLLFISEHQGRVHVVDTRNYVNHQVIVIPDKVNMEYINERKHNTNHNFTTNNNNENESNDSKNELQGADYRSLSRRRFSLPSMPNVTTEPWITMAQRIPKKYLEPQILPFPKVMDKISNESVLFSTKGSSSSDVAHPYKRRCSFRVRRVSTSAPTADYSNNNVNASLGTPAADSIATSSSNSAPQNLIDPLILSHQQASNDVFEDDEYYEAYNDVHSTYRVSSDYHGVSARAFESFLRPPSTPDLPSDDDNFAANSRNNRGTSNFLRRPVITTQESNEFSEENNISGIDWVEDRNGSSLIIGTDYGIMRWNINSWARRSFSSYDLC
notes: Gid11 (Ylr149c), S. cerevisiae, WD40/YVTN repeat-like domain protein; the last 4 residues are printed as 727-730, so the protein ends at residue 730; also called HA-YLR149C; source: S. cerevisiae, overexpressed from plasmid pRS413-GPDpr-HA-YLR149C, in lysate; not shown: HA, N-terminal, kept
